Here are results for one molecule from patent US20110008369A1.

In this assay the target is human PD-1 (Programmed Cell Death 1), expressed on cells (human) (UniProt Q15116). Description: cell binding; 0.2 ug/ml IgG on activated human CD4+ cells, 37 C.
human PD-1 (Programmed Cell Death 1), expressed on cells (human), sequence (Q15116 25-288 limits assumed): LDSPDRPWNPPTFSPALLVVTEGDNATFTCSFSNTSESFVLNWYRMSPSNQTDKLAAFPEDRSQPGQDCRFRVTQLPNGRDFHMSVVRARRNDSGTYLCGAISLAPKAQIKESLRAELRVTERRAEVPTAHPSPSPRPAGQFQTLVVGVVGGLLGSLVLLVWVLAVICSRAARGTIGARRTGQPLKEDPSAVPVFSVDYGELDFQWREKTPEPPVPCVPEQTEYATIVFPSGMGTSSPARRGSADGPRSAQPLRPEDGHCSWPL

B1: mAb 6D10 (antibody, part only; not given: light chain variable domain, V domains shown, part only)
VH: EVKLVESGGGLVQPGGSRKLSCAASGFTFSSFGMHWVRQAPEKGLEWVAYVSSASSVIHYADTVKGRFTISRDNPKNTLFLQMTSLRSEDTAMYYCARSGYYGTWFPYWGQGTLVTVS
Take B1: the MFI came to 133 MFI.
